From patent publication US20090142346A1 (Takeda / Millennium, published 2009) come the findings set out here.

In one assay the target is T1, human nectin-2δ H128R (human, UniProt Q92692 32-538).
T1 construct: transient on CHO-K1
T1 sequence: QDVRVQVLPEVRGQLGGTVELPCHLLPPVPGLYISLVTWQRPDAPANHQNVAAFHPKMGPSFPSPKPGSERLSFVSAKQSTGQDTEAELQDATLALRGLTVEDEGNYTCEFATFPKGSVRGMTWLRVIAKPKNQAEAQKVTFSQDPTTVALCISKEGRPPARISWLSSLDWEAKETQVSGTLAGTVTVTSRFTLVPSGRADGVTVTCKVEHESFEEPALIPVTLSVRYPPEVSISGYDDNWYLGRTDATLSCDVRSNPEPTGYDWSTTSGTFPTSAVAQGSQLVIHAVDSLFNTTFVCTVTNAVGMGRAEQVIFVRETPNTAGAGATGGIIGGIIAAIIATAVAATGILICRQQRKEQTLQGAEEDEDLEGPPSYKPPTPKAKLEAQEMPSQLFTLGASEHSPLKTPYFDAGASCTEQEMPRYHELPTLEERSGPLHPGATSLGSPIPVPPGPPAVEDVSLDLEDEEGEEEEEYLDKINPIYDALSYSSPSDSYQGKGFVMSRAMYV
Description: FCM, CHO-K1 transient.

Assay [1] addresses T2, human nectin-2δ AN77-78PD (human, UniProt Q92692 32-538).
T2 construct: transient on CHO-K1
T2 sequence: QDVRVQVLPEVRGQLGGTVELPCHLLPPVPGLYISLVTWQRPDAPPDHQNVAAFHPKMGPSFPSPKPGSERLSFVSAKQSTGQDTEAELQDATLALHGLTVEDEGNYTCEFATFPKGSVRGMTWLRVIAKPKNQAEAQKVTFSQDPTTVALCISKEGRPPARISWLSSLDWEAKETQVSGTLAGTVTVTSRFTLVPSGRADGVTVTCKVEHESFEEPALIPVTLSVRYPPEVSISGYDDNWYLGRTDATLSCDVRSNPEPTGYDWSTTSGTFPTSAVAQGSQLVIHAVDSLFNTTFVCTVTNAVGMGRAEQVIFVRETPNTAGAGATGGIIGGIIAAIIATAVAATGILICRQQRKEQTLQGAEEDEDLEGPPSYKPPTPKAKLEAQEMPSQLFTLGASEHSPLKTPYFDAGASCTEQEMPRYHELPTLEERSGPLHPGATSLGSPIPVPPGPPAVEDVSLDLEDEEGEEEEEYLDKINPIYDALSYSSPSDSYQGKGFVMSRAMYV
Put plainly: FCM, CHO-K1 transient.
Description: (§1) After these cells were further washed twice with FCM buffer and then resuspended in 250 μL of FCM buffer, fluorescence intensity of the stained cells was measured by the flow cytometer MPL500 (BECKMAN COULTER). A ratio of the median value of fluorescence intensities of negative control plasmid pcDNA3.1(+)-transfected CHO-K1 cells to the median value of fluorescence intensities of each gene-transfected CHO-K1 cells was calculated for each antibody.
(§2) Then, after 200 μL of FCM buffer was added to each well and washed once by centrifugal operation, 50 μL of Alexa Fluor488 goat anti-human IgG (H+L) diluted in FCM buffer to 10 μg/mL was added thereto for suspension, and the mixture was then reacted on ice for an hour. Next, the cells were washed twice with FCM buffer and resuspended in 250 μL of FCM buffer.

A further assay deals with T3, human nectin-2δ G113R (human, UniProt Q92692 32-538).
T3 construct: transient on CHO-K1
T3 sequence: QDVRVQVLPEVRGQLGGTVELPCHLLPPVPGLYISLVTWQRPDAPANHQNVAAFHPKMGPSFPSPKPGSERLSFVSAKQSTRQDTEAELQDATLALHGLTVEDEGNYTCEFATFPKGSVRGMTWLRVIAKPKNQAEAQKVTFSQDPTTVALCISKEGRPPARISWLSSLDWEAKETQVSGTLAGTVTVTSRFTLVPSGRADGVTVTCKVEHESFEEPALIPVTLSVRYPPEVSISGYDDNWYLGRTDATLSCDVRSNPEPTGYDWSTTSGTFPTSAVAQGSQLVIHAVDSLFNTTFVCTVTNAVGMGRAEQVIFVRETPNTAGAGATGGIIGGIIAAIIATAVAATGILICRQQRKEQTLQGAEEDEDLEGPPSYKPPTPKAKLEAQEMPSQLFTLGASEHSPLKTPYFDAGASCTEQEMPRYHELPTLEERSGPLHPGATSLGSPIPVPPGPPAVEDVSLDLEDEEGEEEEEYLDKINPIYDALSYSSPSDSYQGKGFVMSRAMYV
Description: FCM, CHO-K1 transient.

Assay [2] deals with T4, cynomolgus monkey nectin-2 protein (cynomolgus monkey, UniProt Q92692 32-538 (human entry)).
T4 construct: transient on CHO-K1; also called maNectin-2
T4 chain: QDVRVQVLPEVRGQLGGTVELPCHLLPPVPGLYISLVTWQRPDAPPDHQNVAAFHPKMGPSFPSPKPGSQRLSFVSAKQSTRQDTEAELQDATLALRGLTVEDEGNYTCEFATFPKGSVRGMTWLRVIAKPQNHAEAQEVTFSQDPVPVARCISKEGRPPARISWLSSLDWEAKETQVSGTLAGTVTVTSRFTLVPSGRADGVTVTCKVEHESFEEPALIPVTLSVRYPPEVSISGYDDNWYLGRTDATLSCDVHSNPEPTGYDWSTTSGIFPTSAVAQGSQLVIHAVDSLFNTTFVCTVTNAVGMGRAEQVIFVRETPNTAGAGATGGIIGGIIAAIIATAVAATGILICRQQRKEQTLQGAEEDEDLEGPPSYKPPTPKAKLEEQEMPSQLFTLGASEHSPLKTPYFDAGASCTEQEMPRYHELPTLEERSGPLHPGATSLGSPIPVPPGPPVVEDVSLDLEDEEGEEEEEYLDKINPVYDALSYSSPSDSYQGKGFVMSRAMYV
Description: FCM, CHO-K1 transient.
Description: (§3) A ratio of the median value of fluorescence intensities of negative control plasmid pcDNA3.1(+)-transfected CHO-K1 cells to the median value of fluorescence intensities of each gene-transfected CHO-K1 cells was calculated for each antibody.
(§4) Then, after 200 μL of FCM buffer was added to each well and washed once by centrifugal operation, 50 μL each of Alexa488-labeled secondary antibody diluted in FCM buffer to 10 μg/mL was added thereto for suspension, and the mixture was then reacted on ice for an hour. As secondary antibodies, Alexa Fluor488 goat anti-human IgG (H+L) was used for the human antibodies and Alexa Fluor488 goat anti-rabbit IgG (H+L) (Invitrogen) was used for the rabbit antibody, respectively. Next, the cells were washed twice with FCM buffer and then resuspended in 250 μL of FCM buffer.

For the next assay, the target named is T5, human nectin-2δ protein (human, UniProt Q92692 32-538).
T5 construct: full length, stably on CHO-K1 (43-2) or transiently on CHO-K1 from pEE12.4-Nectin-2δ
T5 sequence: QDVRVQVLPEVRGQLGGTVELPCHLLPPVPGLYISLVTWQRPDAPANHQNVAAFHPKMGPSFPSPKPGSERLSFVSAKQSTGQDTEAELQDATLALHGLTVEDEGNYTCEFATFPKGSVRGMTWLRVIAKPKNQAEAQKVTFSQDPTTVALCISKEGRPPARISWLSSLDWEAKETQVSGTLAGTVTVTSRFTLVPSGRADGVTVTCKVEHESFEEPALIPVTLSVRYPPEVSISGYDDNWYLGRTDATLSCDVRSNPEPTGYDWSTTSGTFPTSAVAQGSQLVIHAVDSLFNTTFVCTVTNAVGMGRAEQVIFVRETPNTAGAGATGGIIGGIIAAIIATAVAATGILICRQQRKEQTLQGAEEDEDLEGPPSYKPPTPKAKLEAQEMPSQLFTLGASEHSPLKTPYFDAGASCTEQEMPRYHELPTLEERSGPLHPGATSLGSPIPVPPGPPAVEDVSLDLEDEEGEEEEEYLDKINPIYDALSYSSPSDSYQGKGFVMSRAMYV
Put plainly: FCM, CHO-K1 transient.

Assay [3] concerns the target T6, nectin-2 Ig2 domain-deficient protein (human, UniProt Q92692 32-538).
T6 construct: also called delta-Ig2; Nectin-2ΔIg2
T6 sequence: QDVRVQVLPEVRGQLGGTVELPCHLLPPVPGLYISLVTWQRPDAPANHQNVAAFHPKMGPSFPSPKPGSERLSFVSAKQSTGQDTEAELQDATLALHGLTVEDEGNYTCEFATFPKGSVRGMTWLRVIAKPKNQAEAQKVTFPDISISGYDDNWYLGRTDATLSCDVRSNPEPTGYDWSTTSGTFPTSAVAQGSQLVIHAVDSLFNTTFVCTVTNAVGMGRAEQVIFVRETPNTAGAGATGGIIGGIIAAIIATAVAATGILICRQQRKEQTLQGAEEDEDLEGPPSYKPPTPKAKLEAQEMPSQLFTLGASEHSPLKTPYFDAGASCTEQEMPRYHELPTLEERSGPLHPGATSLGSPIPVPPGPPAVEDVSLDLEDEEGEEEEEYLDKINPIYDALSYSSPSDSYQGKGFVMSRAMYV
Put plainly: FCM.
Description: After 200 μL of FCM buffer was added to each well and washed once by centrifugal operation, 50 μL each of Alexa488-labeled secondary antibody diluted in FCM buffer to 10 μg/mL was added to and mixed therewith, and the mixture was then reacted on ice for an hour. The Alexa488-labeled secondary antibody used was Alexa Fluor488 goat anti-human IgG (H+L) for the human antibodies and Alexa Fluor488 goat anti-rabbit IgG (H+L) (Invitrogen) for the rabbit antibody. The cells in each well were washed twice with FCM buffer and then resuspended in 250 μL of FCM buffer. Using the flow cytometer MPL500 (BECKMAN COULTER), the fluorescence intensity of stained cells was measured to determine the ratio of the median value of fluorescence intensities of the respective antibodies in the primary antibody group to the median value of fluorescence intensities in the negative control group.

Description for human nectin-2δ G113R: as §1, §2
Description for human nectin-2δ H128R: as §1, §2
Description for human nectin-2δ protein: as §3, §4

B1: Nec1-554-1 (antibody, human IgG1, V domains shown)
VH: EVQLVESGGGLVKPGGSLRLSCAASGFTFSSYNMNWVRQAPGKGLEWVSSISSSSSYIYYADSVKGRFTISRDNAKNSLYLQMNSLRAEDTAVYYCARDYYGSGTYYLFDYWGQGTLVTVSS
VL: EIVLTQSPDFQSVTPKEKVTITCRASQSIGSSLHWYQQKPDQSPKLLIKYASQSFSGVPSRFSGSGSGTDFTLTINSLEAEDAAAYYCHQSRSLPITFGQGTRLEIK
notes: human IgG1/k; also called Nec1-554-1 SP3
As to B1, the median fluorescence ratio in the assay with human nectin-2δ H128R was found to be 51.5 ratio; in assay [1] it was 44.2 ratio; in the assay with human nectin-2δ G113R it was 38.7 ratio; in assay [2], 14.8 ratio; with human nectin-2δ protein, 43 ratio. For the same molecule, the binding result in assay [3] is reported as “no binding (tested: ratio below 2 = no reactivity)”.
